The results in this text go back to the Human Domainome abundance scans (Beltran et al. 2025).

± gives the uncertainty stated by the source.

B1: POU domain, class 2, transcription factor 2, residues 200 to 269; numbered along this chain, P09086 (parent)
chain: LEELEQFARTFKQRRIKLGFTQGDVGLAMGKLYGNDFSQTTISRFEALNLSFKNMCKLKPLLEKWLNDAE

The data set covers variants of B1. Put plainly: abundance fitness (aPCA) (normalised: wild type 0, dead -1); higher = more abundant; growth selection in yeast, the domain comes from the species named. The conditions noted are these: Homo sapiens.
LEELEQFARTFKQRRIKLGFTQGDVGLAMGKLYGNDFSQTTISRFEALNLSPKNMCKLKPLLEKWLNDAE: the abundance fitness is -0.115 ± 0.099. To LEELEQFARTFKQRRIKLGFTQGDVGLAMGKLYGNDFSQTTISRFEALNLSLKNMCKLKPLLEKWLNDAE belongs -0.014 ± 0.046; to LEELEQFARTFKQRRIKLGFTQGDVGLAMGKLYGNDFSQTTISRFEALNLSCKNMCKLKPLLEKWLNDAE, -0.062 ± 0.061; to LEELEQFARTFKQRRIKLGFTQGDVGLAMGKLYGNDFSQTTISRFEALNLSYKNMCKLKPLLEKWLNDAE, -0.096 ± 0.14. Turning to LEELEQFARTFKQRRIKLGFTQGDVGLAMGKLYGNDFSQTTISRFEALNLSTKNMCKLKPLLEKWLNDAE, the abundance fitness stood at 0.069 ± 0.061.

On to LEELEQFARTFKQRRIKLGFTQGDVGLAMGKLYGNDFSQTTISRFEALNLSWKNMCKLKPLLEKWLNDAE, for which the abundance fitness is -0.024 ± 0.055. Next, LEELEQFARTFKQRRIKLGFTQGDVGLAMGKLYGNDFSQTTISRFEALNLSIKNMCKLKPLLEKWLNDAE: -0.028 ± 0.063; LEELEQFARTFKQRRIKLGFTQGDVGLAMGKLYGNDFSQTTISRFEALNLSHKNMCKLKPLLEKWLNDAE: -0.2 ± 0.12. Next, LEELEQFARTFKQRRIKLGFTQGDVGLAMGKLYGNDFSQTTISRFEALNLSKKNMCKLKPLLEKWLNDAE: -0.031 ± 0.085.

On to LEELEQFARTFKQRRIKLGFTQGDVGLAMGKLYGNDFSQTTISRFEALNLSNKNMCKLKPLLEKWLNDAE, for which the abundance fitness is -0.069 ± 0.18. Next, LEELEQFARTFKQRRIKLGFTQGDVGLAMGKLYGNDFSQTTISRFEALNLSEKNMCKLKPLLEKWLNDAE: -0.044 ± 0.071. LEELEQFARTFKQRRIKLGFTQGDVGLAMGKLYGNDFSQTTISRFEALNLSAKNMCKLKPLLEKWLNDAE: the abundance fitness was -0.038 ± 0.046. Turning to LEELEQFARTFKQRRIKLGFTQGDVGLAMGKLYGNDFSQTTISRFEALNLSRKNMCKLKPLLEKWLNDAE, the abundance fitness amounted to 0.032 ± 0.036. Take LEELEQFARTFKQRRIKLGFTQGDVGLAMGKLYGNDFSQTTISRFEALNLSMKNMCKLKPLLEKWLNDAE: the abundance fitness is -0.105 ± 0.11. For the variant LEELEQFARTFKQRRIKLGFTQGDVGLAMGKLYGNDFSQTTISRFEALNLSVKNMCKLKPLLEKWLNDAE, the abundance fitness was -0.035 ± 0.05. To LEELEQFARTFKQRRIKLGFTQGDVGLAMGKLYGNDFSQTTISRFEALPLSFKNMCKLKPLLEKWLNDAE belongs -0.671 ± 0.056. Next, LEELEQFARTFKQRRIKLGFTQGDVGLAMGKLYGNDFSQTTISRFEALVLSFKNMCKLKPLLEKWLNDAE: -0.091 ± 0.032; LEELEQFARTFKQRRIKLGFTQGDVGLAMGKLYGNDFSQTTISRFEALQLSFKNMCKLKPLLEKWLNDAE: 0.053 ± 0.058.

For LEELEQFARTFKQRRIKLGFTQGDVGLAMGKLYGNDFSQTTISRFEALYLSFKNMCKLKPLLEKWLNDAE, the abundance fitness was -0.249 ± 0.096. Next, LEELEQFARTFKQRRIKLGFTQGDVGLAMGKLYGNDFSQTTISRFEALWLSFKNMCKLKPLLEKWLNDAE: -0.309 ± 0.044; LEELEQFARTFKQRRIKLGFTQGDVGLAMGKLYGNDFSQTTISRFEALSLSFKNMCKLKPLLEKWLNDAE: -0.005 ± 0.027; LEELEQFARTFKQRRIKLGFTQGDVGLAMGKLYGNDFSQTTISRFEALRLSFKNMCKLKPLLEKWLNDAE: -0.052 ± 0.029. Next, LEELEQFARTFKQRRIKLGFTQGDVGLAMGKLYGNDFSQTTISRFEALNLSFRNMCKLKPLLEKWLNDAE: -0.022 ± 0.039; LEELEQFARTFKQRRIKLGFTQGDVGLAMGKLYGNDFSQTTISRFEALNLSFVNMCKLKPLLEKWLNDAE: -0.014 ± 0.035. To LEELEQFARTFKQRRIKLGFTQGDVGLAMGKLYGNDFSQTTISRFEALNLSFANMCKLKPLLEKWLNDAE belongs 0.004 ± 0.047; to LEELEQFARTFKQRRIKLGFTQGDVGLAMGKLYGNDFSQTTISRFEALNLSFGNMCKLKPLLEKWLNDAE, 0.002 ± 0.034; to LEELEQFARTFKQRRIKLGFTQGDVGLAMGKLYGNDFSQTTISRFEALNLSFTNMCKLKPLLEKWLNDAE, 0.064 ± 0.059. With LEELEQFARTFKQRRIKLGFTQGDVGLAMGKLYGNDFSQTTISRFEALNLSFSNMCKLKPLLEKWLNDAE, the abundance fitness worked out at 0.005 ± 0.043. To LEELEQFARTFKQRRIKLGFTQGDVGLAMGKLYGNDFSQTTISRFEALNLSFPNMCKLKPLLEKWLNDAE belongs -0.055 ± 0.055. Next, LEELEQFARTFKQRRIKLGFTQGDVGLAMGKLYGNDFSQTTISRFEALNLSFINMCKLKPLLEKWLNDAE: -0.073 ± 0.12. Next, LEELEQFARTFKQRRIKLGFTQGDVGLAMGKLYGNDFSQTTISRFEALNLSFQNMCKLKPLLEKWLNDAE: 0.028 ± 0.045; LEELEQFARTFKQRRIKLGFTQGDVGLAMGKLYGNDFSQTTISRFEALNLSFMNMCKLKPLLEKWLNDAE: -0.055 ± 0.054. Take LEELEQFARTFKQRRIKLGFTQGDVGLAMGKLYGNDFSQTTISRFEALNLSFFNMCKLKPLLEKWLNDAE: the abundance fitness is -0.044 ± 0.054. Next, LEELEQFARTFKQRRIKLGFTQGDVGLAMGKLYGNDFSQTTISRFEALNLSFENMCKLKPLLEKWLNDAE: 0.003 ± 0.05; LEELEQFARTFKQRRIKLGFTQGDVGLAMGKLYGNDFSQTTISRFEALNLSFLNMCKLKPLLEKWLNDAE: -0.015 ± 0.042; LEELEQFARTFKQRRIKLGFTQGDVGLAMGKLYGNDFSQTTISRFEALNLSFHNMCKLKPLLEKWLNDAE: 0.016 ± 0.071. Next, LEELEQFARTFKQRRIKLGFTQGDVGLAMGKLYGNDFSQTTISRFEALNLSFCNMCKLKPLLEKWLNDAE: -0.098 ± 0.069.

LEELEQFARTFKQRRIKLGFTQGDVGLAMGKLYGNDFSQTTISRFEALNLSFDNMCKLKPLLEKWLNDAE: the abundance fitness was -0.048 ± 0.075.

As to LEELEQFARTFKQRRIKLGFTQGDVGLAMGKLYGNDFSQTTISRFEALNLSFNNMCKLKPLLEKWLNDAE, the abundance fitness was -0.236 ± 0.12.
